Values quoted from earlier work in publication PMC7589189.
Like-named read-outs stand apart in the source and are kept apart here. Each block holds one substance with its values, some of them ahead of it.

Columns and labels:
ActRIIA (Homo sapiens) = ActRIIA (Homo sapiens) (UniProt P27037)
ALK1-Fc (Homo sapiens) = ALK1-Fc (Homo sapiens) (UniProt P37023); assay: SPR
TβRII (Homo sapiens) [1] = molecular target: TβRII (Homo sapiens) (UniProt P37173)
TβRII (Homo sapiens) [2] = molecular target: TβRII (Homo sapiens) (UniProt P37173); remark: listed apart in the source
TβRII (Homo sapiens) [3] = molecular target: TβRII (Homo sapiens) (UniProt P37173); remark: listed apart in the source

TβRII (Homo sapiens), sequence (P37173 23-166): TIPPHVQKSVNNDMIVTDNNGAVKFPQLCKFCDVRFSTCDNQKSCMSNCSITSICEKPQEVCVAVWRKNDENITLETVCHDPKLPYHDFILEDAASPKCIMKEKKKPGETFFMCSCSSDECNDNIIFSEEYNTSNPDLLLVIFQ
ALK1-Fc (Homo sapiens), sequence (P37023 22-118): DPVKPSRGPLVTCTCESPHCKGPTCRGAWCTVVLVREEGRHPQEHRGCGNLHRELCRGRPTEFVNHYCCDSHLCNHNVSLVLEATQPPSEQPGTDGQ
TGF-β3, sequence (P10600 301-412): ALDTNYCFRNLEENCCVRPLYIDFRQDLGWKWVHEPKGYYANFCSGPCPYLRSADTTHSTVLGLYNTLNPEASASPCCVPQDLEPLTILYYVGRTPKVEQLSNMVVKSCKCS
BMP-7, sequence (P18075 293-431): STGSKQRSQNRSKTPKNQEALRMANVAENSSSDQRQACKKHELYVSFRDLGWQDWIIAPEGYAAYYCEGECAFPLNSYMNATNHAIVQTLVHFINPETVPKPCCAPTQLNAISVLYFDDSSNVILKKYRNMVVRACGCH
TGF-β1, sequence (P01137 279-390): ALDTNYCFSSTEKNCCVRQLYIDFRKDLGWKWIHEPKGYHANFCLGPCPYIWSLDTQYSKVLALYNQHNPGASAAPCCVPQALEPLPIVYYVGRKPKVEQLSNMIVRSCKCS
BMP-9, sequence (Q9UK05 320-429): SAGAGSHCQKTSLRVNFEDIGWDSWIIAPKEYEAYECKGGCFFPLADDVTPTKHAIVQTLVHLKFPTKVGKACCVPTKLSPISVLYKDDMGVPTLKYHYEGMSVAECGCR
pro-BMP-9, sequence (Q9UK05 320-429): as above
ActRIIA (Homo sapiens), sequence (P27037 20-135): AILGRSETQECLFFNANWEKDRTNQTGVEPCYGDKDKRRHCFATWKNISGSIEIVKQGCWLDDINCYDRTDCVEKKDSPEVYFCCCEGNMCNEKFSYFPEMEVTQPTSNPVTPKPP
TGF-β2, sequence (P61812 303-414): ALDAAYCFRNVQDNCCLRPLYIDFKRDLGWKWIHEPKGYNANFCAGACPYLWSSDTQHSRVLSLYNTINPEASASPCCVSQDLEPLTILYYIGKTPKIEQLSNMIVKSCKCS

Substance: BMP-7 (from UniProt P18075)
Kd (ActRIIA (Homo sapiens)): 8 nM

Substance: TGF-β1 (from UniProt P01137)
Kd (TβRII (Homo sapiens) [1]): 0.2 nM

Substance: TGF-β3 (from UniProt P10600)
Kd (TβRII (Homo sapiens) [3]): 0.5 nM

The remaining lines, values ahead:

Kd (ALK1-Fc (Homo sapiens)): 0.048 nM
Substance: BMP-9 (from UniProt Q9UK05)

Kd (TβRII (Homo sapiens) [2]): > 10 nM
Substance: TGF-β2 (from UniProt P61812)

Kd (ALK1-Fc (Homo sapiens)): 0.061 nM
Substance: pro-BMP-9 (from UniProt Q9UK05)
